According to publication PMC314469, “Protein Interaction Networks by Proteome Peptide Scanning” (PLoS Biology, 2004):

Target: T1, Abp1 SH3 (ABP1_YEAST), P15891
T1 chain: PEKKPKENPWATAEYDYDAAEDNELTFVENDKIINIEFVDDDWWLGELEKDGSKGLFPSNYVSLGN
Test: SPOT array

Binder	normalised SPOT signal, Boehringer light units (BLU); mean over the file's lines of this peptide
KHKQHKPKVKPSKP [YHL007C 233-246]	13.3
KDIPVKSDDTPAKP [YGL009C 527-540]	75.1
KDSPSFLPGQQRP [YNL167C 92-104]	71.8
KDVQPFIPKSLRP [YGR175C 289-301]	2320
KDDKAMEPPNEKP [YDL193W 7-19]	118
KIGLIQFQISPPKP [YDL143W 233-246]	40.5
KDPKSFPPPPLKP [YBR108W 81-93]	1320
IYLTKLFMEWPFKP [YMR228W 312-325]	118
ITELISGYMLPLRP [YJL212C 542-555]	149
KLGPISTSKSPKKP [YJL051W 233-246]	200
ISNLGGKSIDPHKP [YNL212W 461-474]	91.3
KKLSSSMPNSPKKP [YDL117W 113-126]	153
KGMENELPFMKRP [YIL077C 15-27]	332
KDPANISMILPSKP [YBR260C 525-538]	112
KARHVLYPKGVKP [YDR463W 278-290]	174
KKPKLNKRVLPSKP [YLR183C 347-360]	128
KKEYSETFYHPYKP [YPL008W 3-16]	109
KKHNSWVPKWLKP [YFL034W 914-926]	194
KLDIISDPESERP [YGL004C 356-368]	107
KELSRLTYYGPEKP [YLR305C 1008-1021]	116

Binder	normalised SPOT signal, Boehringer light units (BLU); mean over the file's lines of this peptide
ISGVYYSNWSPYKP [YDR371W 74-87]	91.7
KSEPELYPNGIKP [YBR058C 403-415]	13.7
KLHFSSFPNDIRP [YER097W 23-35]	396
ITSYAVSPYAQKP [YJL166W 24-36]	90.7
KKIEAKKATRPSKP [YNL173C 323-336]	80
KAEMKAGTTAPPKP [YLR234W 517-530]	211
KGVRNIMIPFPNRP [YOR093C 1313-1326]	273
ISLDSPIPENIKP [YNL102W 567-579]	95.3
KHAAKIDLVEPVKP [YBR261C 84-97]	121
KFSSDNDPLQYRP [YBR033W 108-120]	71.3
KETVTKQPTEEKP [YNL110C 11-23]	94.1
IVFKNVSFTYPTRP [YLR188W 432-445]	87
KKISFNPVVTPIRP [YFR023W 33-46]	0
KIEGSIPENEPSKP [YHR102W 306-319]	97.5
KGFRFNLPPTDRP [YGR202C 91-103]	166
ISMIPRYPVTSRP [YDL056W 329-341]	2470
KKKSSPATKVPSKP [YGL207W 456-469]	65
KKQTQLSSTAPKKP [YGR056W 686-699]	34.9
KFMSAIKPANQKP [YAL024C 394-406]	2680
KHSTDEKPNFTKP [YLR087C 2329-2341]	125

Binder	normalised SPOT signal, Boehringer light units (BLU); mean over the file's lines of this peptide
ISKWTIMPHPNRP [YOL008W 136-148]	1030
ISSQIAQPYEDRP [YDR280W 60-72]	43.3
IYDVIEVVPEPGKP [YDR301W 1056-1069]	80.4
ISPVIIPLGNPKRP [YGR177C 149-162]	90.9
KIQELYLPHMSRP [YMR131C 92-104]	166
KKPASKAPAEKKP [YBL002W 7-19]	174
KGIIMDAKFHPFKP [YMR049C 639-652]	898
KAGGPRAPQGPRP [YJL008C 549-561]	209
KGPDVEFLMIPFRP [YOR188W 88-101]	114
KKLLLKGYIPPYKP [YMR104C 605-618]	95.9
ITKILRIIGFPSRP [YNL247W 569-582]	43.2
KKSRSTGFKNPLRP [YML061C 150-163]	184
KKIKKKSPTGMKP [YOL075C 641-653]	120
KELKWADPRSFKP [YOR168W 156-168]	378
KEKKVTFDIEPYKP [YBR143C 103-116]	63.6
ISRWVNFPWDAKP [YIL085C 295-307]	172
KEYTRFNQIFPKKP [YDR182W 159-172]	54
KILDLKFPPKERP [YKL211C 326-338]	257
